Results on twelve molecules are retold here after patent US20030181408A1, “Genes essential for microbial proliferation and antisense thereto” (priority 1999, published 2003).

Series [1] deals with bacterial strain engineered for expression of an antisense against rplL and rplJ (50S ribosomal subunit proteins). In words: microbe, parasite or virus in culture. Particulars: read-out: IC50 (+I). The format is cell-based, E. coli. The procedure: Antibiotics of various chemical classes and modes of action were purchased from Sigma Chemicals (St. Louis, Mo.). Stock solutions were prepared by dissolving each antibiotic in an appropriate aqueous solution based on information provided by the manufacturer. The final working solution of each antibiotic contained no more than 0.2% (w/v) of any organic solvent. To determine their potency against a bacterial strain engineered for expression of an antisense against a proliferation-required gene encoding 50S ribosomal protein, each antibiotic was serially diluted two or three fold in growth medium supplemented with the appropriate antibiotic for maintenance of the anti-sense construct. At least ten dilutions were prepared for each antibiotic. 25 μL aliquots of each dilution were transferred to discrete wells of a 384-well microplate (the assay plate) using a multi-channel pipette. Quadruplicate wells were used for each dilution of an antibiotic under each treatment condition (plus and minus inducer). Each assay plate contained twenty wells for cell growth controls (growth media replacing antibiotic), ten wells for each treatment (plus and minus inducer, in this example IPTG). Assay plates were usually divided into the two treatments: half the plate containing induced cells and an appropriate concentrations of inducer (in this example IPTG) to maintain the state of induction, the other half containing non-induced cells in the absence of IPTG.
Cells for the assay were prepared as follows. Bacterial cells containing a construct, from which expression of antisense nucleic acid against rplL and rplJ, which encode proliferation-required 50S ribosomal subunit proteins, is inducible in the presence of IPTG, were grown into exponential growth (OD600 0.2 to 0.3) and then diluted 1:100 into fresh media containing either 400 μM or 0 μM inducer (IPTG). These cultures were incubated at 37° C. for 2.5 hr. After a 2.5 hr incubation, induced and non-induced cells were respectively diluted into an assay medium at a final OD600 value of 0.0004. The medium contained an appropriate concentration of the antibiotic for the maintenance of the anti-sense construct. In addition, the medium used to dilute induced cells was supplemented with 800 μM IPTG so that addition to the assay plate would result in a final IPTG concentration of 400 μM. Induced and non-induced cell suspensions were dispensed (25 μl/well) into the appropriate wells of the assay plate as discussed previously. The plate was then loaded into a plate reader, incubated at constant temperature, and cell growth was monitored in each well by the measurement of light scattering at 595 nm. Growth was monitored every 5 minutes until the cell culture attained a stationary growth phase. For each concentration of antibiotic, a percentage inhibition of growth was calculated at the time point corresponding to mid-exponential growth for the associated control wells (no antibiotic, plus or minus IPTG). For each antibiotic and condition (plus or minus IPTG), a plot of percent inhibition versus log of antibiotic concentration was generated and the IC50 determined.

A further series concerns Enterobacter cloacae. In words: Growth inhibition by IPTG-induced antisense RNA expression in Enterobacter cloacae (induced vs. uninduced serial dilution plating). The format is cell-based. The procedure: (§1) To study the effects of transcriptional induction in liquid medium, growth curves were carried out by back diluting cultures 1:200 into fresh media with or without 1 mM IPTG and measuring the OD450 every 30 minutes (min). To study the effects of transcriptional induction on solid medium, 10^2, 10^3, 10^4, 10^5, 10^6, 10^7 and 10^8 fold dilutions of overnight cultures were prepared. Aliquots of from 0.5 to 3 μl of these dilutions were spotted on selective agar plates with or without 1 mM IPTG. After overnight incubation, the plates were compared to assess the sensitivity of the clones to IPTG.
(§2) Molecule No. EcXA059, encoding a portion of the ypjA gene of Escherichia coli, was either transformed directly into Enterobacter cloacae, Salmonella typhimurium and/or Klebsiella pneumoniae or subdloned into an expression vector functional in these species and the subclones transformed into these organisms. Suitable expression vectors are well known in the art. These expression vectors were introduced into Enterobacter cloacae, Salmonella typhimurium and/or Klebsiella pneumoniae cells that were then assayed for growth inhibition according to the method of Example 1. After growth in liquid culture, cells were plated at various serial dilutions and a score determined by calculating the log difference in growth for INDUCED vs. UNINDUCED antisense RNA expression as determined by the maximum 10 fold dilution at which a colony was observed. If there was no effect of antisense RNA expression in one organism, the clone is given a score of zero “0” in that organism. In contrast, a score of “8” means that 10^8 times more cells were required to observe a colony formed on the induced state than in the non-induced state under the conditions used and in that organism.
(§3) Expression vectors which inhibited growth of E. coli upon induction of antisense RNA expression with IPTG were transformed directly into Enterobacter cloacae, Klebsiella pneumonia or Salmonella typhimurium. The transformed cells were then assayed for growth inhibition according to the method of Example 1. After growth in liquid culture, cells were plated at various serial dilutions and a score determined by calculating the log difference in growth for INDUCED vs. UNINDUCED antisense RNA expression as determined by the maximum 10 fold dilution at which a colony was observed. If there was no effect of antisense RNA expression in a microorganism, the clone is minus in Table V below. In contrast, a positive in Table V below means that at least 10 fold more cells were required to observe a colony on the induced plate than on the non-induced plate under the conditions used and in that microorganism.

The next series deals with E. coli. As to the kind of experiment: Inhibition of E. coli proliferation after IPTG induction of antisense clones (liquid growth curves, dilution spotting on plates). The format is cell-based, Escherichia coli. Particulars: for effect of antisense expression on E. coli growth after IPTG induction: 1 mM IPTG. How it is done: as §1, §2
The subject of the next series is Klebsiella pneumoniae. As to the kind of experiment: Growth inhibition by IPTG-induced antisense RNA expression in Klebsiella pneumoniae (induced vs. uninduced serial dilution plating). The format is cell-based. The procedure: as §1, §2, §3
The next series relates to Salmonella typhimurium. In words: Growth inhibition by IPTG-induced antisense RNA expression in Salmonella typhimurium (induced vs. uninduced serial dilution plating). It is filed as cell-based. The procedure:
as §1, §2, §3

Converted amounts (≈) assume the structure as drawn. Where a SMILES comes first, the peptide text is derived from it. Bridges are numbered along the chain shown (N, C = ends). [ ]: non-standard residue; d: D form. The star is where a group is joined. Ileψ(thiazoline)Cys = CC[C@H](C)[C@H](N)C1=N[C@H](C(=O)*)CS1; dOrn = NCCC[C@@H](N)C(=O)O

Regarding `CC[C@H](C)[C@H](N)C1=N[C@H](C(=O)N[C@@H](CC(C)C)C(=O)N[C@H](CCC(=O)O)C(=O)N[C@H](C(=O)N[C@H]2CCCCNC(=O)[C@H](CC(N)=O)NC(=O)[C@@H](CC(=O)O)NC(=O)[C@H](Cc3cnc[nH]3)NC(=O)[C@@H](Cc3ccccc3)NC(=O)[C@H]([C@@H](C)CC)NC(=O)[C@@H](CCCN)NC2=O)[C@@H](C)CC)CS1` [Bacitracin] ({Ileψ(thiazoline)Cys}-L[dE]IK[dOrn]I[dF]H[dD]N; lactam 4-C), the concentration for half-maximal inhibition (IC50) in series [1] came to 4670 µg/mL (≈ 3280 µM). Same read-out and setting: next, `CO/N=C(\C(=O)N[C@@H]1C(=O)N2C(C(=O)O)=C(COC(C)=O)CS[C@H]12)c1csc(N)n1` [Cefotaxime]: 0.0241 µg/mL (≈ 0.0529 µM); `O=C(N[C@H](CO)[C@H](O)c1ccc([N+](=O)[O-])cc1)C(Cl)Cl` [Chloramphenicol]: 0.00151 µg/mL (≈ 0.00467 µM); `CN(C)c1ccc(O)c2c1C[C@H]1C[C@H]3[C@H](N(C)C)C(O)=C(C(N)=O)C(=O)[C@@]3(O)C(O)=C1C2=O` [Minocycline]: 0.00389 µg/mL (≈ 0.0085 µM). In the case of `CCn1cc(C(=O)O)c(=O)c2ccc(C)nc21` [Nalidixic acid], the 50% inhibitory concentration (IC50) in series [1] was 6.02 µg/mL (≈ 25.9 µM). Turning to `CN[C@@H]1[C@H](O)[C@H](NC)[C@H]2O[C@@]3(O)C(=O)C[C@@H](C)O[C@H]3O[C@@H]2[C@H]1O` [Spectinomycin], the half-maximal inhibitory concentration (IC50) in series [1] was less than 0.15 µg/mL. Consider `NC[C@H]1O[C@H](O[C@H]2[C@H](O)[C@@H](O[C@H]3O[C@H](CO)[C@@H](O)[C@H](N)[C@H]3O)[C@H](N)C[C@@H]2N)[C@H](N)C[C@@H]1O` [Tobramycin], for which the concentration for half-maximal inhibition (IC50) in series [1] was found to be 0.0705 µg/mL (≈ 0.151 µM).

B1: EcXA072: antisense clone insert, E. coli gene recJ (nucleic acid, listed as Escherichia coli)
DNA: GATTTTTACCGGATTAATTTTAAACATGGTCTGATTTCTTTTATTGAGCTAGTCAAAATGCGGTGATAAGAGCGGGATTGTCCCAATCCACGCTCTTTTTTATAGAGAAGATGACGCTAAATTGGCCAGATATTGTCGATGATAATTTG
Consider B1, for which the “Sensitivity of E. cloacae to antisense nucleic acid (growth inhibition, induced vs. uninduced)” value with Enterobacter cloacae is “−”. The “effect of antisense expression on E. coli growth after IPTG induction” value (“effect of antisense expression” below) in the series with E. coli is reported as “reduction in cell growth”.

B2: EcXA059: antisense clone insert, portion of the ypjA gene of Escherichia coli (nucleic acid, listed as Escherichia coli)
DNA: NACCANGANTGGGACCCAAATGAAAATTGAACTGAAGATTACAATCAATTTAACANCAAGTTACACAACCAATTCAGACTCCGCCAGCCCACCAATCATGATTGGACGGTGTAAGGACAACACCAACAAAAACAGGAAGTTAGAAGTCTNAGCAAAACACCGACCAGACGGTGAGGAGACATAAAAGGATACGCAAAGGAGCCGCGGCTCCTGGTAACATGAAAGCCCACAGATGTGGGCTTTTTCGTTGATGGTCAGAACGACCAGTTCACACCAGCTACCGCGTTCCACGGGGATTCCACACCGGCACTATGGCTATACCCCACCCCAAGATGCCCGCTTAACGTACTGCTGAATGAGGCTTTAATACCTGCCTGGTATATTCCACGTCTGCCCGACAAATAATTGACGAAATTACCGNCACTATTCACTTTCACCCGGTTATCATCGACAAATTCTTTGCGCACAAGCCGNCTTCAGCCACGGNTCAACTTCCATACCGNTCCCCAGACGCATGTTGTAACTCAACGTTGCGCCCAGTTCACGATATATACTGCGGGTATCGACTGATTTCGATTTCATGCCATTGGATAAATGATATTCGGGGTTATCAGCGGTGAAACCCGTTNACGATGCATACNGGGTCAGGGTTCAATTACCATCGGTAAATCGCATTCCCGGTTTCAATGTGACCGCCAANCCCGTTGCTGTNGGTAACTGGCATTGGCGGGTTCANCGGTGGTAATTTTAACCTGGTACGNTACTTTTAAAACGGGTTAAGCTTTACCGAANACCGTNCANNATTGGAAACCCNCTTTTAATGGTTNCCCAACTNGGNN
modifications: misc_feature (1)...(839): n = A,T,C or G
notes: antisense clone insert, portion of the ypjA gene of Escherichia coli
For the molecule B2, in the series with E. coli (Escherichia coli, IPTG induction, maximum 10 fold dilution at which a colony was observed), the “score: log difference in growth for INDUCED vs. UNINDUCED antisense RNA expression” value came to 8.

B3: EcXA104: antisense clone insert, E. coli gene hsdS (nucleic acid, listed as Escherichia coli)
DNA: GACGCGGCGAACGATTTCGGCTTGTTCTTTTACTGGAGGTAATAAAACAACTTGGGATTTGATATCTTTTCCTGAAATACCTTTTTGACCAGAAGTTGTTTTCACGCAGTTCATCATTGCATTTCGTGCTGAGGGGGATGAAAAAAATATTTCGATATATTCTGGTAAAGCATCTTT
Regarding B3, the “effect of antisense expression” value in the series on E. coli is recorded as “reduction in cell growth”.

B4: EcXA082: antisense clone insert, E. coli genes hybC; hybB (nucleic acid, listed as Escherichia coli)
DNA: TGCTTTGCTCGCCTCATGACGATTATGATCGTTTTGTTTTAAAGGAGGAAGTATCGGCAGTAGACGAATGAGTACGATGTAAGCGCAAATCTCAATAGCCACAAAACCAATAGAAATCAACAGTTCTTCCCAGGTCGGGAAGTA
Take B4: in the series on Klebsiella pneumoniae, the “Sensitivity of K. pneumoniae to antisense nucleic acid (growth inhibition, induced vs. uninduced)” value is recorded as “−”. The “effect of antisense expression” value in the series on E. coli is listed as “reduction in cell growth”. Moreover, the “Sensitivity of S. typhimurium to antisense nucleic acid (growth inhibition, induced vs. uninduced)” value in the series on Salmonella typhimurium is “−”.

B5: EcXA069: antisense clone insert, E. coli genes RplD; rplC (nucleic acid, listed as Escherichia coli)
DNA: TGAAATNCGACCGAAGGTAGTTTCGGAAACAGTCAGCGCGCTCTGCGCGTCTTTCAATACTAATTCCATTGCTATCTCCTTACGCCTTCACAGCTGGTTTAACGATCAGGTCGCTACCGGTTGCACCCGGGACAGCACCTTTAACCAGCAGCAGGT
modifications: misc_feature (1)...(156): n = A,T,C or G
notes: antisense clone insert, E. coli genes RplD; rplC
Take B5: in the series with Enterobacter cloacae, the “Sensitivity of E. cloacae to antisense nucleic acid (growth inhibition, induced vs. uninduced)” value is reported as “+ (a positive in Table V below means that at least 10 fold more cells were required to observe a colony on the induced plate than on the non-induced plate)”. Besides, the “Sensitivity of K. pneumoniae to antisense nucleic acid (growth inhibition, induced vs. uninduced)” value with Klebsiella pneumoniae is on record as “−”. Also, the “Sensitivity of S. typhimurium to antisense nucleic acid (growth inhibition, induced vs. uninduced)” value in the series with Salmonella typhimurium is “−”.

In general, IC50 refers to the concentration at which inhibition is half-maximal.
